In test [1] the target is T1, RAGE-Fc (R&D Systems #1145-RG) (UniProt Q15109 23-344, limits assumed).
T1 construct: Bought reagent; not shown: Fc part of the bought fusion (detected with anti-human IgG HRP)
In words: ELISA: biotinylated oxIL-33 on streptavidin plate, RAGE-Fc at 10 µg/mL, anti-human IgG HRP. As to the method:
(§1) Plates were washed 3× with 200 μl PBS-T (PBS+1% (v/v) Tween-20) and blocked with 300 μl/well blocking buffer (PBS with 1% BSA (Sigma, A9576)) for 1 hour. […] Plates were washed with 200 μl PBS-T three times. […] Plates were washed 3× with PBS-T and developed with TMB, 100 μl/well (Sigma, T0440). The reaction was quenched with 50 μl/well 0.1M H₂SO₄. Absorbance was read at 450 nm on the Cytation Gen5 or similar equipment.

For test [2], the target named is T2, epidermal growth factor receptor (EGFR), endogenous in NHBE, DHBE and A549 cells (human, UniProt P00533 25-1210).
T2 construct: whole, on cells; Endogenous receptor; also called EGF Receptor
In words: anti-EGFR (AF231) immunoprecipitation from NHBE lysate, LC-MS; cells stimulated with 30 ng/ml reduced IL-33-01 for 10 min; IL-33 not detected in complex with EGFR.

The target in test [3] is T1, RAGE-Fc (R&D Systems #1145-RG). In words: ELISA, FIG. 7A: biotinylated HMGB1 on streptavidin plate, RAGE-Fc. On the procedure:
as §1

The target in test [4] is T3, EGFR-Fc (R&D Systems #344-ER-050) (UniProt P00533 25-645).
T3 construct: Bought reagent; not shown: Fc part of the bought fusion (detected with anti-human IgG HRP)
In words: ELISA: biotinylated HMGB1 on streptavidin plate, EGFR-Fc with untagged RAGE (Sino Biological 11629-HCCH) at 10 µg/mL, anti-human IgG HRP. As to the method: as §1

T1 sequence (Q15109 23-344 limits assumed): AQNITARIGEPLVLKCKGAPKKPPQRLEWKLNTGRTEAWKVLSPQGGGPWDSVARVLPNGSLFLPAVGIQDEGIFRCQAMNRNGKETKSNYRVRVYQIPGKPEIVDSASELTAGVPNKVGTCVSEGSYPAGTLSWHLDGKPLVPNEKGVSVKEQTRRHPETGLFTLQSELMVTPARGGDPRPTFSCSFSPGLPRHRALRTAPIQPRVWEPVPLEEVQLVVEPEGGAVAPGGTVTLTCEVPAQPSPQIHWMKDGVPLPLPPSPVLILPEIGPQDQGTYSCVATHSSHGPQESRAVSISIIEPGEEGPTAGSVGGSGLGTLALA

B1: Avitag_IL-33-01 (oxidised IL-33) (ligand)
chain: MHHHHHHHHHHAAGLNDIFEAQKIEWHEAAIEGRSITGISPITEYLASLSTYNDQSITFALEDESYEIYVEDLKKDEKKDKVLLSYYESQHPSNESGDGVDGKMLMVTLSPTKDFWLHANNKEHSVELHKCEKPLPDQAFFVLHNMHSNCVSFECKTDPGVFIGVKDNHLALIKVDSSENLCTENILFKLSET
modifications: biotinylated on the Avitag with BirA; oxidised (disulphide bonded) form
notes: also called oxIL-33; biotinylated oxidised N-terminal tagged His10/Avitag IL33-01
For the molecule B1, the binding result in test [1] is given as “binds”.

B2: Untagged IL33-01 (ligand)
chain: SITGISPITEYLASLSTYNDQSITFALEDESYEIYVEDLKKDEKKDKVLLSYYESQHPSNESGDGVDGKMLMVTLSPTKDFWLHANNKEHSVELHKCEKPLPDQAFFVLHNMHSNCVSFECKTDPGVFIGVKDNHLALIKVDSSENLCTENILFKLSET
notes: Reduced wild type form; also called reduced IL-33; WT IL-33
As for B2, the binding result in test [2] is on record as “no binding”.

B3: HMGB1 (R&D systems 1690-HMB-050), biotinylated (ligand, UniProt P09429 1-215, looked up)
chain: MGKGDPKKPRGKMSSYAFFVQTCREEHKKKHPDASVNFSEFSKKCSERWKTMSAKEKGKFEDMAKADKARYEREMKTYIPPKGETKKKFKDPNAPKRPPSAFFLFCSEYRPKIKGEHPGLSIGDVAKKLGEMWNNTAADDKQPYEKKAAKLKEKYEKDIAAYRAKGKPDAAKKGVVKAEKSKKKKEEEEDEEDEEDEEEEEDEEDEDEEEDDDDE
modifications: biotinylated via free amines (EZ link Sulfo-NHS-LC-Biotin)
notes: Immobilised on streptavidin plates in the ELISA of section 10; called a known RAGE ligand / bona fide RAGE agonist
Regarding B3, the binding result in test [3] is reported as “binds”; in test [4] it was “no binding (tested: 10 µg/mL)”.

For the origin of these results see patent US20220380450A1 (AstraZeneca / MedImmune, published 2022).
